Legend:
[1] = molecular target: human 40S small ribosomal subunit (human) (UniProt P23396); assay: cryo-EM structure
[2] = molecular target: Cy3-labeled human 40S subunit (human) (UniProt P62841); assay: FRET or BRET

Substance | fraction of 40S complexes with density for the Nsp1 linker and NTD [1] | fraction of tethered 40S complexes that yielded FRET [2] | koff [2] | lifetime of the FRET signal [2]
Bat-Hp-CoV Nsp1 wild type (natural protein) | 15% | – | – | –
Cy5-labeled Bat-Hp-CoV Nsp1 (natural protein) | – | 10 to 20% | < 0.01 s⁻¹ | > 100 s

From paper PMC10575594
